# From US11312781B2, “Antigen binding molecules that bind LIGHT” (Capella Bioscience Ltd., priority 2018, dated 2022)
# How the values were obtained:
# [1] = tested on: wild type and mutated membrane LIGHT; experiment: Alanine scanning mutagenesis of membrane LIGHT and flow cytometry (HEK293FF cells); type: binding, human; details: single substitutions F57A to E86A and four amino acid substitutions 60-63 to 96-99
# From the text: The full length LIGHT gene was synthesized by GeneArt (ThermoFisher Scientific) and cloned into the mammalian expression vector pcDNA 3.1(+). The following Ala mutations were introduced into the LIGHT gene: 30 single amino acid alanine substitutions from F57A to E86A; 2 single amino acid alanine substitutions; G188A, R189A; one serine substitution, A190S; 17 single amino acid alanine substitutions; T191A to V207A and 10 four amino acid alanine substitutions, 60-63, 64-67, 68-71, 72-75, 76-79, 80-83, 84-87, 88-91, 92-95 and 96-99. Constructs were reconstituted according to manufacture instructions, using DEPC-treated and sterile filtered water. Competent TOP10 E. coli cells were transformed with 100 ng of each construct and a single colony from each construct was picked and used to inoculate 10 ml of LB/carb100/glu2% medium and grown overnight at 37° C., 200 rpm. The extraction of the construct DNA was performed using the Qiagen QIAprep Spin Miniprep Kit (250) and the concentration was determined by measuring the O.D. at 260 nm in a spectrophotometer.
# HEK293FF cells were cultured in Freestyle™293 expression medium (ThermoFisher scientific cat. no. 12338018) supplemented with 2 mM L-Glutamine. The day of transfection the cells were seeded in a 24-well plate at 0.6×10^6 cells/well. Lipofectamine 2000 (ThermoFisher scientific), 3 μl, was mixed with 50 μl OptiMEM medium (GIBCO) and then added to 50 μl Opti-MEM medium containing 3 ug plasmid DNA and incubated for 20 min at RT to form DNA-Lipofectamine 2000 complexes which were then added to the HEK293FF cells and incubated at 37° C., 5% CO2 for 24 hours. For each construct, in duplicate, 0.60×10^6 cells/well were used in a 96 well round bottom plate. Cells were centrifuged for 3 minutes at 300×g at 4° C., the supernatant discarded and the cells washed with 150 μl FACS buffer (0.5% FBS in phosphate buffered saline). This process was repeated 3 times. For each construct, […] cells/well were incubated with anti-LIGHT antibodies at the EC50 concentration and with positive controls of anti-LIGHT mAb MAB664 (R&D Systems), mAb F19 (EP2292663) or LTBR-Fc (R&D Systems), in a final volume of 50 μl/well for 30 min at 4° C., with shaking. The wells were washed 3 times as above and 50 μl/well of goat anti-human IgG FITC (1:1500 dilution in FACS buffer, SIGMA F9512-2ML) or goat anti-mouse APC (1/500 dilution in FACS buffer, BDBioscience 550826), as appropriate, was added to the wells and incubated for 30 min at 4° C. protected from the light, with shaking. The cells were then washed as above, resuspended in 100 μl of FACS buffer and binding of the antibodies to the constructs was measured using flow cytometry and a total of 10,000 cells were acquired for each sample. Controls of buffer and secondary antibody only as well as HEK293FF non transfected cells were also used.
# All of the mAbs of this invention show a similar profile in that their epitope is located at amino acids 188-197 of LIGHT. […] The epitope of the mAbs of this invention defined by alanine scanning mutagenesis are residues 188-197 of LIGHT. This is visually depicted in FIG. 8 utilising a 3D visualisation of the LIGHT trimer from the crystal structure of LIGHT from Liu et al. (Structure 22: 1252-62; 2014). This would result in the mAbs binding to the “tip” of the LIGHT trimer and explaining the 1:1 binding. The impact of this epitope would result in […] less dosing of mAb 3B04 being required to neutralise membrane LIGHT compared to, for example, mAbs F19 and F23 (of EP2292663) which bind both soluble and membrane LIGHT equally and bind LIGHT in the ratio 3:1.
# [2] = molecular target: T1, DcR3 binding to membrane LIGHT (EL4-LIGHT cells) (Homo sapiens, UniProt O43557); experiment: Competition binding of anti-membrane LIGHT antibodies with DcR3-His on EL4-LIGHT cells; details: mAb at up to 100 nM
# T1 construct: expressed in transfected cells; host or cells: EL4 mouse lymphoma cells, stably transduced
# Protocol: DcR3 (TNFRSF6B) is a decoy receptor that competes with receptors for ligand binding. DcR3 can bind and neutralise LIGHT with high affinity and TL1A and FasL with lower affinity (Zhan C et al. Structure. 2011, 19:162-71 “Decoy strategies: the structure of TL1A:DcR3 complex”). Stably transduced LIGHT-expressing EL4 cells (mouse lymphoma cell line; EL4-LIGHT) were used for the flow cytometry-based competition-binding analysis.
# EL4-LIGHT cells (0.25×10^6) were preincubated with anti-membrane LIGHT mAbs (0-300 nM) for 15 min at 4° C. followed by incubation with DcR3-His tagged (1 nM, Creative BioMart; ref:TNFRSF6B-552H, lot:962512) for 30 min at 4° C. The samples were then incubated with mouse anti-histag antibody (diluted 1:500, Biolegend, cat. no. 652502) for 30 minutes at 4° C., followed by incubation with anti-mouse APC (dil 1:500, BDBiosciences, cat. no. 550826) for 30 minutes at 4° C. The tubes were washed three times after each of the detection antibody stages and flow cytometry analysis was performed. Specific mean fluorescence intensity (MFI) obtained from the binding of DcR3-His to LIGHT on EL4 cells were used to determine the levels of competition binding.
# [3] = molecular target: T2, soluble LIGHT amino acids 74-240 (Homo sapiens, UniProt O43557, K214E); experiment: BIAcore (SPR) binding to soluble LIGHT 74-240
# T2 construct: amino acids 74-240 LIGHT (R&D Systems, 664-LI-025); purchased R&D Systems 664-LI-025
# Protocol: Real-time binding interactions between captured antibody (chimeric anti-membrane LIGHT monoclonal antibody) captured on a biosensor matrix via goat anti-human Fc IgG and recombinant soluble LIGHT were measured by surface plasmon resonance (SPR) using the BIAcore system (GE Healthcare) according to manufacturer's instructions and standard procedures. Briefly, soluble LIGHT was diluted in HBS running buffer (GE Healthcare) and aliquots were injected through the immobilized protein matrices at a flow rate of […]. BIAevaluation software was used to calculate association rate (ka), dissociation rate (kd) and affinity (KD).
# The specificity of two lead anti-membrane LIGHT mAbs to soluble LIGHT was determined by BIAcore analysis and compared to the KD calculated from the EC50 values in Table 7 (results in Table 9). In brief, mAbs 3D12, 3B04 were compared to a mAb that binds both soluble and membrane LIGHT, F19, (F19 IgG4 mAb from EP2292663). An irrelevant anti-HEL mAb, 2A11, was used as a negative control. The mAbs were captured on an anti-human Fc mAb coated chip and soluble LIGHT was passed over the surface and the kinetic parameters were calculated using BIAcore 3000 software. The soluble LIGHT preparations used were amino acids 74-240 LIGHT (R&D Systems, 664-LI-025) and 64-240 LIGHT (Abcam, ab82123).
# T2 sequence (O43557 74-240 K214E): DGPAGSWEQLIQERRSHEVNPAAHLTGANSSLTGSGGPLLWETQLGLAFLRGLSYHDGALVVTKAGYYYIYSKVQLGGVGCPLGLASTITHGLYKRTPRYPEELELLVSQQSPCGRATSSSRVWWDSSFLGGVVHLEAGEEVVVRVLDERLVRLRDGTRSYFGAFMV
# T1 sequence (O43557 whole entry): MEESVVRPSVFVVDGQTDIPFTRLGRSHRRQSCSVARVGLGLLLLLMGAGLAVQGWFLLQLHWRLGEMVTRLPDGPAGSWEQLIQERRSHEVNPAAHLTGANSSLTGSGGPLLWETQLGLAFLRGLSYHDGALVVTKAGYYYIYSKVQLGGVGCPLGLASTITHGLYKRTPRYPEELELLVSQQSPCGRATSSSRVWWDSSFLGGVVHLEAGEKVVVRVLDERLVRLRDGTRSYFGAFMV
Molecule,Binding to LIGHT alanine substitution constructs versus WT LIGHT [1],Inhibition of DcR3 binding to membrane LIGHT [2],74-240 LIGHT Ka [3] [M⁻¹ s⁻¹],74-240 LIGHT Kd [3] [s⁻¹]
"3B04: parental mouse anti-membrane LIGHT antibody, VL SEQ ID NO 1, VH SEQ ID NO 5; tested as chimeric human IgG4 mAb (antibody, listed as Homo sapiens, V domains shown) VH: QVQLQQPGAELVRPGASVTLSCKASGYTFTDYEMHWVKQTPVHGLEWIGEIDPETGDTAYSQKFKGKATLTADKSSSTAYMEFRSLTSEDSAVYYCSRETDYFFDYWGQGTTLTVSS VL: DIQMTQTPASLSASVGETVTITCGASENIYGALNWYQRKQGKSPQLLIYGATNLADGMSSRFSGSGSGRQYSLKISSLHPDDFATYYCQNVLTTPWTFGGGTKLEIKR",no difference in binding,only partially inhibit,222000,0.00348
"3D12: parental mouse anti-membrane LIGHT antibody, VL SEQ ID NO 41, VH SEQ ID NO 45; tested as chimeric human IgG4 mAb (antibody, listed as Homo sapiens, V domains shown) VH: QVQLQQPGAELVRPGASVTLSCKASDYTFTDSEIHWVKQTPVHGLEWIGEIDPETGGTAYNQKFKGKATLTADKSSSTAYMELRSLTSEDSAVYYCSRETDYFFDYWGQGTTLTVSS VL: DIQMTQSPASLSASVGETVTITCGASENIYGALNWYQRKQGKSPQLLIYGATNLADGMSSRFSGSGSGRQYSLKISSLHPDDVATYYCQNVLSTPWTFGGGTKLEIKR",no difference in binding,only partially inhibit,168000,
